Test results reported in article PMC11231238, “SPRING licenses S1P-mediated cleavage of SREBP2 by displacing an inhibitory pro-domain” (Nature Communications, 2024).

Molecular target: T1, FLAG-S1P_(ecto)-His10, matured C-form (human, UniProt Q14703 187-998)
T1 construct: human S1P (MBTPS1); expressed as IgK leader-FLAG-residues 23-998-His10; after autoproteolysis the His10-bearing C-form; The N-terminal FLAG tag leaves with the A-domain; also called WT S1P_(ecto); C-form of S1P_(ecto); source: HEK 293S GnTI- (BacMam baculovirus), secreted, purified (NiNTA, gel filtration); HEK 293T, transfected, secreted, in supernatant; not shown: His10, C-terminal, kept
T1 sequence (looked up): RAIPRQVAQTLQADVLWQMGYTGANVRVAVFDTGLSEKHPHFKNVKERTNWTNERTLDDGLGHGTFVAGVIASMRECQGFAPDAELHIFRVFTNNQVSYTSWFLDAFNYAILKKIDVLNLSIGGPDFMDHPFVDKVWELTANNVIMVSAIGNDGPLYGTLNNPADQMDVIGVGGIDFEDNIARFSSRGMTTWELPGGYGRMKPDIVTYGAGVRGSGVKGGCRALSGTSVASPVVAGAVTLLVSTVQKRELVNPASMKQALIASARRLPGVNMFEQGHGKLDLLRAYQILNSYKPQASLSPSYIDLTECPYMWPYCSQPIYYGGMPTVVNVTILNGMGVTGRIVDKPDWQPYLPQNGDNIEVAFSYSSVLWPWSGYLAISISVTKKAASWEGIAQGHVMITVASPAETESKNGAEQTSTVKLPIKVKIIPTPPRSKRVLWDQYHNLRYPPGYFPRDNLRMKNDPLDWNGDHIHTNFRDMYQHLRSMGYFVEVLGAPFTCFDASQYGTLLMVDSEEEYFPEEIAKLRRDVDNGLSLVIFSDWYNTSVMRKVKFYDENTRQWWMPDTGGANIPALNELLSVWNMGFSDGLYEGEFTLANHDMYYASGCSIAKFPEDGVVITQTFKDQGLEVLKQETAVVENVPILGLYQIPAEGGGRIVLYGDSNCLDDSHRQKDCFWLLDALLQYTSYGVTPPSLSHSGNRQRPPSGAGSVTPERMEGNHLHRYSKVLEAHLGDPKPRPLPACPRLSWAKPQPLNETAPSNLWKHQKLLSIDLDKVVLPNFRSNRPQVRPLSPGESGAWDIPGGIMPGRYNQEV
Test: pull-down; HEK 293T supernatants of co-transfected cells with 50 mM imidazole; NiNTA resin holds the His10 tag of S1P_(ecto), 1-2 h at 4 °C; washes in 150 mM NaCl, 50 mM HEPES-NaOH pH 7.5, 50 mM imidazole; elution with 300 mM imidazole; immunoblot anti-HA, anti-His, anti-FLAG
Conditions: partners not purified

B1: cleaved A-domain of FLAG-S1P_(ecto)-His10 (domain or fragment, human, UniProt Q14703 23-137, looked up)
chain: DRLEKKSFEKAPCPGCSHLTLKVEFSSTVVEYEYIVAFNGYFTAKARNSFISSALKSSEVDNWRIIPRNNPSSDYPSDFEVIQIKEKQKAGLLTLEDHPNIKRVTPQRKVFRSLK
notes: human S1P (MBTPS1) A pro-domain, released by autoproteolysis from the construct FLAG-residues 23-998-His10; the construct begins at residue 23; in the cryo-EM map the density ends after K137 (cleavage at the B site); cleavage at the alternative B' site is possible too; also called A pro-domain; S1P A-domain; source: HEK 293S GnTI- (BacMam baculovirus), secreted, co-purified with S1P_(ecto) …
- binding result: binds
